# Measurements from patent US8247376B2, “NGAL for reduction and amelioration of ischemic and nephrotoxic injuries” (The Trustees of Columbia University, priority 2004, dated 2012).
# Entries after “also recorded” stand apart in the source; their conditions may differ.
# B1: NGAL: Purified endotoxin-free recombinant NGAL expressed as GST fusion protein in bacteria, thrombin cleaved (protein, UniProt P80188 21-198, looked up)
# Neutrophil …: QDSTSDLIPAPPLSKVPLQQNFQDNQFQGKWYVVGLAGNAILREDKDPQKMYATIYELKEDKSYNVTSVLFRKKKCDYWIRTFVPGCQPGEFTLGNIKSYPGLTSYLVRVVSTNYNQHAMVFFKKVSQNREYFKITLYGRTKELTSELKENFIRFSKSLGLPENHIVFPVPIDQCIDG
# Legend:
# [1] = Cofactor-dependent ^55Fe binding to NGAL (10 kDa filter retention)
# Experimental: The urine fraction was obtained by passing fresh urine sequentially through 10 kDa and 3 kDa membranes (YM-10 and YM-3, Amicon). The mixture was then washed three times on 10 kDa membrane (YM-10, Amicon). Iron-free enterochelin-loaded NGAL (rather than NGAL without siderophore) served as a positive control for iron capture. Ferric citrate (1 mM) or iron-loaded enterochelin (Sid:Fe, 50 μM) were used as competitors of ^55Fe binding.
# tubule epithelial cells = assay: PCNA proliferation assay on kidney sections; format: in vivo, mice; settings: 24 h reflow
# Experimental: (§1) Purified endotoxin-free NGAL was administered either intravenously into mice via tail vein injections, subcutaneously, or intraperitoneally. In preliminary studies, animals were treated with three different concentrations of NGAL (50, 100, or 250 μg of a 250 μg/100 solution), subjected to 30 minutes of bilateral renal artery clamping one hour later, and examined after 24 hours of reflow. […] All subsequent studies as reported here were carried out using the 250 μg dose of NGAL. Comparisons were made between five different animal groups: non-ischemic controls (n=8), ischemic controls pre-treated with saline alone (n=8), NGAL pre-treated one hour prior to renal artery clamping (n=6), NGAL treated during renal artery clamping (n=6), and NGAL treated one hour post renal artery clamping (n=6).
# For detection of proliferating cells, sections were incubated with a monoclonal antibody to Proliferating Cell Nuclear Antigen (PCNA, 1:500 dilution, Upstate Biotechnology), and detection accomplished by immunoperoxidase staining as recommended by the manufacturer (ImmunoCruz Staining System, Santa Cruz Biotechnology). Slides were examined in a blinded fashion, and proliferation was quantified by counting the number of PCNA positive cells per 100 cells counted in an average of five high power (40×) fields in each section.
# [2] = system: ischemia-reperfusion injury in mice; assay: Serum creatinine 24 h after bilateral renal artery clamping, NGAL intravenous; format: in vivo
# Experimental: as §1
# Male C57BL/6 mice (20-25 gr; Charles River) were anesthetized with intraperitoneal pentobarbital (50 mg/kg) and placed on a heating pad under a warming light to maintain 37© core body temperature. Kidneys were exposed through an abdominal section and the right kidney was either removed or its vascular pedicle and ureter ligated. The vascular pedicle of the left kidney or both kidneys was clamped by a microaneurysm clip (Kent Scientific) for 30 minutes after right nephrectomy. This period of ischemia generated reproducible renal injury but minimized mortality. During the procedure, PBS (0.5 ml) was used to dampen the peritoneum. The animal was closed with 5-0 Nylon. Saline, NGAL, retinol-loaded retinol binding protein (RBP), enterochelin, or desferroxamine mesylate (DFO) were injected into the peritoneum or subcutaneously 15 min. prior to ischemia or 1-2 hr after reperfusion.
# For some studies, the mice were allowed to recover in a warmed cage, and timed urine collections were obtained. […] The mice were killed, the kidneys perfusion fixed in situ with 4% paraformaldehyde in PBS, and both kidneys harvested. One half of each kidney was snap frozen in liquid nitrogen and stored at −70° C. until further processing; a sample was fixed in formalin, paraffin-embedded, and sectioned (4 μm). Paraffin sections were stained with hematoxylin-eosin and examined histologically. The other half of each kidney was embedded in OCT compound (Tissue-Tek) and frozen sections (4 μm) obtained for immunohistochemistry.
# [3] = NGAL trafficking after intraperitoneal or subcutaneous injection; format: in vivo, mice
# Excerpt: Recombinant human and mouse GST-NGAL were expressed in BL21 or XL1-Blue strains of E. coli (Stratagene) with additional ferric sulfate (50 Micro Molar, Sigma-Aldrich Co.). NGAL was isolated using Glutathione Sepharose 4B beads (Amersham Biosciences), eluted by thrombin cleavage (Sigma-Aldrich Co.; St. Louis, Mo.) and then further purified by gel filtration (Superdex75, SMART system, Amersham Biosciences) and examined by Coomassie gels (Biorad). BL-21 derived NGAL was loaded with iron free or iron saturated enterochelin, a siderophore (EMC Microcollections) using a 5 fold molar excess. Unbound siderophore (0.7 KD) was removed by washing (Microcon YM-10) with PBS. To produce ^55Fe or gallium (Ga) loaded NGAL we incubated the iron-free enterochelin NGAL complex with equimolar ^55Fe (18mCi) or Ga in NaCl (150 mM) Hepes (20 mM; pH 7.4) and the complex was washed 3 times (10K filter). Iodobeads (Pierce) were used to label NGAL with ^125I and unincorporated ^125I was removed by gel filtration (PD-10 column) followed by extensive dialysis (7 kDa cut off membrane, Pierce) against PBS. Alexa-568 and fluorescein isothiocyanate (Molecular Probes) was coupled to NGAL, according to the manufacturer, and then extensively dialyzed. Protein concentration was determined by Coomassie gels in comparison with bovine serum albumin standard.
# To detect delivery of NGAL to the kidney rNGAL (10 or 100 μg), Alexa 568-NGAL (100 μg), ^125I-NGAL ([…], 2×10^6 cpm), or ^55Fe loaded enterochelin-NGAL (10 μg, 1×10^6 cpm) was injected into the peritoneum and blood, urine, kidney and liver samples were obtained. NGAL was detected by immunoblot. Alexa-568 NGAL was detected by confocal microscopy (LSM Meta Detector) and NGAL mediated iron trafficking was detected by scintillation counter and by light microscopic radioautography of Epon embedded kidneys. Slides were exposed to emulsion (Polyscience) for 1 week and then developed with Microdol and counterstained with Toluidine blue. To detect lysosomes in the proximal tubule, mice were injected with Fluorescein Dextran (46 kD; 0.5 mg; Sigma) 24 hours before Alexa 568 NGAL injections. LAMP1 (Santa Cruz) was detected in cryostat sections of 4% paraformaldehyde fixed kidneys.
# [4] = Uptake of intravenous NGAL into kidney and urine (immunofluorescence, Western blot); format: in vivo, mice; settings: within one hour of iv injection of 250 μg
# Experimental: as §1
# For NGAL detection, frozen kidney sections were permeabilized with 0.2% Triton X-100 in PBS for 10 min, blocked with goat serum for 1 hr, and incubated with primary antibody to NGAL (1:500 dilution) for 1 hr. Slides were then exposed for 30 min in the dark to secondary antibodies conjugated with Cy5 (Amersham, Arlington Heights, Ill.), and visualized with a fluorescent microscope (Zeiss Axiophot) equipped with rhodamine filters.
molecule,measurement,setting,value
B1,NGAL molecules that bound iron,[1]; 30 μl of mouse urine,approximately 20%
same,retention of ^55Fe,"[1]; with mouse urine fraction (<3,000 Da), washed on 10 kDa filter",permitted the retention of ^55Fe
same,PCNA-positive tubule epithelial cells per hundred cells,tubule epithelial cells; NGAL during ischemia,14.9%±1.2
same,PCNA-positive tubule epithelial cells per hundred cells,tubule epithelial cells; NGAL one hour after ischemia,14.5%±1.2
same,PCNA-positive tubule epithelial cells per hundred cells,"tubule epithelial cells; NGAL one hour before ischemia, saline 4.4%±1.2",19.1%±2.1
same,protection from the tubular damage and azotemia,"[2]; 250 μg NGAL one hour before 30 min bilateral renal artery clamping, 24 h reflow, vs saline, doses 50, 100, 250 μg tested",significant protection from the tubular damage and azotemia
same,serum creatinine at 24 hours of reflow,[2]; NGAL 250 μg iv during ischemia (Dur NGAL),1.5±0.2 mg/di
same,serum creatinine at 24 hours of reflow,[2]; NGAL 250 μg iv one hour after ischemia (Post NGAL),1.95±0.2 mg/di
same,serum creatinine at 24 hours of reflow,"[2]; NGAL 250 μg iv one hour before ischemia (Pre NGAL), saline 2.6±0.28, non-ischemic 0.65±0.13",1.25 ± 0.3 mg/dL
same,time to appearance of NGAL in the urine,[3]; injection of 100 μg exogenous NGAL,≤ 10 min
same,injected NGAL recovered in the urine in the first hour,"[3]; mouse, in vivo",0.1-0.2%
same,NGAL in urine by Western blot,[4],detected in the urine within one hour of injection; also recorded: easily detected in the kidney and urine
same,NGAL in kidney by immunofluorescence,[4]; ischemic mice,easily detected in a punctate cytoplasmic distribution predominantly in the proximal tubules
